From publication PMC3386289, “Isolation of Human Mitotic Protein Phosphatase Complexes: Identification of a Complex between Protein Phosphatase 1 and the RNA Helicase Ddx21” (PLoS ONE, 2012)

Target: T1, His6-Ddx21_(motif2) (human, UniProt Q9NR30 1-783, motif2 (aa440–444) -RTIIF- to -RTAIA-)
T1 construct: Site-directed mutagenesis of pRSET-A-DDX21; also called mut2; (aa440–444: motif2); source: E. coli DH5α, purified (SP-Sepharose, Ni-NTA)
T1 sequence (looked up): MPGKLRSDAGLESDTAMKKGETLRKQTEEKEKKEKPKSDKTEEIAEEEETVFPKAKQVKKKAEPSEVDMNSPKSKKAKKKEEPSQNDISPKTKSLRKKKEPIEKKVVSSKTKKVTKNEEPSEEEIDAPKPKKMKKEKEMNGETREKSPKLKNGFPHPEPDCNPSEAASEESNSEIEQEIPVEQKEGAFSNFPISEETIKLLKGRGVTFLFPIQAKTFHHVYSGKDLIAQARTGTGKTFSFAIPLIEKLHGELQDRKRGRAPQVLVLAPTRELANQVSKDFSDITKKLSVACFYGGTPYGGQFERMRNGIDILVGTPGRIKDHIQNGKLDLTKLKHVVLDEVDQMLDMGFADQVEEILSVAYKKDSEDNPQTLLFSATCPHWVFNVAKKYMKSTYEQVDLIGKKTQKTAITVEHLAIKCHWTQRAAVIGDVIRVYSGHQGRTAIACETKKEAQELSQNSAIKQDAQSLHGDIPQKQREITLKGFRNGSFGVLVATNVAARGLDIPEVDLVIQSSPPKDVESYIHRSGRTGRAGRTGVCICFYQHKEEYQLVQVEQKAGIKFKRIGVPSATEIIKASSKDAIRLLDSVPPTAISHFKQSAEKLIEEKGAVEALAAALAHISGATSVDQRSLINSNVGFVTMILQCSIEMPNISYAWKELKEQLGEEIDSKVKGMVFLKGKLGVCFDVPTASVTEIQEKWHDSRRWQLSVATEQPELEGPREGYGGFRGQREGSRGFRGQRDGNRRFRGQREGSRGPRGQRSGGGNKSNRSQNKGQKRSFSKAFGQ
Test: pull-down; 300 ng PP1 and 200 ng His6-Ddx21 in 25 mM Tris pH 7.5, 5% glycerol, 150 mM NaCl, 0.5% Igepal630, 10 mM imidazole, 4°C; Ni-NTA beads; wash 450 mM NaCl, 0.5% Tween-20 (γ: 500 mM NaCl, 0.75% Tween-20); western blot
Conditions: both partners purified

- binding result: binds
B1: PP1β, bacterially expressed and purified (enzyme, human, UniProt P62140 1-327, looked up)
chain: MADGELNVDSLITRLLEVRGCRPGKIVQMTEAEVRGLCIKSREIFLSQPILLELEAPLKICGDIHGQYTDLLRLFEYGGFPPEANYLFLGDYVDRGKQSLETICLLLAYKIKYPENFFLLRGNHECASINRIYGFYDECKRRFNIKLWKTFTDCFNCLPIAAIVDEKIFCCHGGLSPDLQSMEQIRRIMRPTDVPDTGLLCDLLWSDPDKDVQGWGENDRGVSFTFGADVVSKFLNRHDLDLICRAHQVVEDGYEFFAKRQLVTLFSAPNYCGEFDNAGGMMSVDETLMCSFQILKPSEKKAKYQYGGLNSGRPVTPPRTANPPKKR
notes: Protein phosphatase 1 catalytic subunit, isoform β, human; also called protein phosphatase 1 beta
